The values that follow are results of earlier work, collected in paper PMC9405667.

Data set [1] deals with chemerin receptor 1 (chem1) (Homo sapiens) (UniProt Q99788).
Data set [2] has as its target chemerin receptor 2 (chem2) (Homo sapiens) (UniProt P46091).

chemerin (chem157S), sequence (Q99969 21-157): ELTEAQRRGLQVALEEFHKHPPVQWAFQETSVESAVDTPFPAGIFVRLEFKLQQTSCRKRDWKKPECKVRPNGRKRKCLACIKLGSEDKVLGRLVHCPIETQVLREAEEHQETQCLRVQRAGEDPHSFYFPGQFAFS
chemerin receptor 1 (chem1) (Homo sapiens), sequence (Q99788 whole entry): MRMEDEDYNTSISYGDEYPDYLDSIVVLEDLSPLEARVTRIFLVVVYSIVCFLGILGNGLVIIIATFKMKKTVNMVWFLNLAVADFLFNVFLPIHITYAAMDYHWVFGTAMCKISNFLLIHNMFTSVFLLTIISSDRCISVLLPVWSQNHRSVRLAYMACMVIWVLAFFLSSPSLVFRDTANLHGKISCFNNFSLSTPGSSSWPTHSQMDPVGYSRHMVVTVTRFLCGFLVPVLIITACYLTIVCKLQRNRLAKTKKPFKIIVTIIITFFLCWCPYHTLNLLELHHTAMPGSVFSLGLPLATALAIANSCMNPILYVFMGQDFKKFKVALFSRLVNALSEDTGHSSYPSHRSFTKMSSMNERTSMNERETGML
chemerin receptor 2 (chem2) (Homo sapiens), sequence (P46091 whole entry): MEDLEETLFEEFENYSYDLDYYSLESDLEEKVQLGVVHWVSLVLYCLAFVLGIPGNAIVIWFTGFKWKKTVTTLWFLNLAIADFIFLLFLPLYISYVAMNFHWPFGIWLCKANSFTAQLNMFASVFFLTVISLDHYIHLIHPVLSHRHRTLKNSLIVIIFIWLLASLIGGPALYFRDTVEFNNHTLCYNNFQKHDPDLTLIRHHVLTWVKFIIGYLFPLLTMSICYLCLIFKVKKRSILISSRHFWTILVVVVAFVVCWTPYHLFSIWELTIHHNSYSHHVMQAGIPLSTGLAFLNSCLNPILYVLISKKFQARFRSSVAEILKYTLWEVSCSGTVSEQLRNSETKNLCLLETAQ

One may read the Kd as the free concentration of one partner at which half of the binding sites on the other are occupied at equilibrium, for simple one-to-one binding. In the case of “chemerin (chem157S) (from UniProt Q99969)”, the equilibrium dissociation constant (Kd) in data set [1] was 0.88 nM; in data set [2] it was 0.21 nM.
